Source: patent publication US20170320955A1 (IGM BIOSCIENCES A S, published 2017)

Key:
Assay in all cases: ELISA as in Example 2, receptor coated on the plate
[1] = biological target: T1, Soluble DR4 protein (R&D Systems Catalog #347-DR-100/CF) (human, UniProt O00220 24-239, limits assumed)
T1 construct: Coated on the ELISA plate at 2 ug/mL; also called TRAILR1; Apo2
T1 sequence (looked up): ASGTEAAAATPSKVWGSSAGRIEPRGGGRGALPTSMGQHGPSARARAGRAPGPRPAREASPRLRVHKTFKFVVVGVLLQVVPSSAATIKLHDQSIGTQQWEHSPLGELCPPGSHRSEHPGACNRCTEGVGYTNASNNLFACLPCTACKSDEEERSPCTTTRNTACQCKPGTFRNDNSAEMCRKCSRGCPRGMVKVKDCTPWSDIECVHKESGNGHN
Protocol: (§1) DR4 or decoy receptors DcR1 and DcR2. Soluble DRS, DR4, DcR1, or DcR2 protein (R&D Systems Catalog #631-T2-100/CF, 347-DR-100/CF, 630-TR-100/CF, 633-TR-100 respectively) were coated on an ELISA plate at 2 μg/mL in 100 mM NaHCO₃ pH 9.5 overnight at 4° C. A solution of 2% BSA in PBS was used for the blocking and antibody incubation steps. The plate was blocked for 1 hour at room temperature, then incubated with mouse anti-human DRS mAb (Acris Antibodies Catalog #AM31206AF-N) for 1 hour at room temperature. anti-DRS mAb was 3-fold serially diluted to concentrations ranging from 1 to 200 ng/mL. After washing 3 times with PBS plus 0.05% Tween-20, the plate was incubated with rat anti-mouse kappa-HRP (Southern Biotech Catalog #1180-05) for 1 hour at room temperature, protected from light. After washing 3 times with PBS plus 0.05% Tween-20, the plate was incubated with TMB substrate (BD Biosciences Catalog #555214) for 20 minutes at room temperature. The reaction was stopped with 1M H₂SO₄ and absorbance at 450nm was determined using a microtiter plate reader.
(§2) Biotech Catalog #9180-05) or 1:6000 Mouse Anti-Human Kappa-HRP (Southern Biotech Catalog #9230-05) was used for detection.

[2] = biological target: T2, Soluble DcR2 protein (R&D Systems Catalog #633-TR-100) (UniProt Q9UBN6 56-211, limits assumed)
T2 construct: Coated on the ELISA plate at 2 ug/mL; also called TRAILR4; decoy receptor DcR2
T2 sequence (looked up): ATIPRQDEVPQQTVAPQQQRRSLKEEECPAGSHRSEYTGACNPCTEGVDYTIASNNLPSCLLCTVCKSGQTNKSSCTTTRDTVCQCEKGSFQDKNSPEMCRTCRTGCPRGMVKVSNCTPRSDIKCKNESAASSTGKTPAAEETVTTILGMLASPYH
Protocol: as §1, §2

[3] = biological target: T3, Soluble DcR1 protein (R&D Systems Catalog #630-TR-100/CF) (UniProt O14798 26-221, limits assumed)
T3 construct: Coated on the ELISA plate at 2 ug/mL; also called TRAILR3; decoy receptor DcR1
T3 sequence (looked up): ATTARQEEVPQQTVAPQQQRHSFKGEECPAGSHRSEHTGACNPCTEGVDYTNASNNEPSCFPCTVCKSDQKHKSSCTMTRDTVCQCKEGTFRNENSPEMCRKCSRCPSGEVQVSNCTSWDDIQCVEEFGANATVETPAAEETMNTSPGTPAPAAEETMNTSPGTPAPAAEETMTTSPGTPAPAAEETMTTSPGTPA
Protocol: as §1, §2

Measured: binding result

B1: Anti-DR5 mAb #2, IgG version (antibody, V domains shown)
VH: QVQLQESGPGLVKPSQTLSLTCTVSGGSISSGDYFWSWIRQLPGKGLECIGHIHNSGTTYYNPSLKSRVTISVDTSKKQFSLRLSSVTAADTAVYYCARDRGGDYYYGMDVWGQGTTVTVSS
VL: EIVLTQSPGTLSLSPGERATLSCRASQGISRSYLAWYQQKPGQAPSLLIYGASSRATGIPDRFSGSGSGTDFTLTISRLEPEDFAVYYCQQFGSSPWTFGQGTKVEIK
notes: Human IgG; variable domains put into proprietary IgG vectors (Aragen Biosciences, Lake Pharma); also called DR5 MAb IgG #2; Anti-DRS mAb #2 IgG
no binding: all assays above

B2: Anti-DR5 mAb #2, pentameric IgM-J chain version (antibody, V domains shown)
VH: QVQLQESGPGLVKPSQTLSLTCTVSGGSISSGDYFWSWIRQLPGKGLECIGHIHNSGTTYYNPSLKSRVTISVDTSKKQFSLRLSSVTAADTAVYYCARDRGGDYYYGMDVWGQGTTVTVSS
VL: EIVLTQSPGTLSLSPGERATLSCRASQGISRSYLAWYQQKPGQAPSLLIYGASSRATGIPDRFSGSGSGTDFTLTISRLEPEDFAVYYCQQFGSSPWTFGQGTKVEIK
notes: Pentameric IgM with J chain; variable domains put into proprietary IgM vectors; also called DR5 MAb IgM #2; IgM Anti-DR5 mAb #2
no binding: all assays above
